In US7223547B2, “Polypeptides having a functional domain of interest and methods of identifying and using same” (Cytogen Corporation, priority 1995, dated 2007):
* marks the point of attachment. Biotin = O=C1N[C@H]2[C@H](CS[C@H]2CCCCC(=O)*)N1

Tests used:
[1] = biological target: T1, SH3P7, a novel mouse gene (mouse, UniProt Q62418 1-436); test: plaque-lift screen of mouse 16 day embryo cDNA expression library with biotinylated peptide complexed to SA-AP
T1 construct: Protein encoded by a cDNA clone, on plaque-lift filters; not shown: N-terminal phi10 leader (T7-Tag) common to all lambda EXlox recombinants

SH3P6, mouse MLN50 = biological target: T2, SH3P6, mouse MLN50 (mouse, UniProt Q61792 59-263); test: as above
T2 construct: Protein encoded by a cDNA clone, on plaque-lift filters; not shown: N-terminal phi10 leader (T7-Tag) common to all lambda EXlox recombinants
T2 sequence: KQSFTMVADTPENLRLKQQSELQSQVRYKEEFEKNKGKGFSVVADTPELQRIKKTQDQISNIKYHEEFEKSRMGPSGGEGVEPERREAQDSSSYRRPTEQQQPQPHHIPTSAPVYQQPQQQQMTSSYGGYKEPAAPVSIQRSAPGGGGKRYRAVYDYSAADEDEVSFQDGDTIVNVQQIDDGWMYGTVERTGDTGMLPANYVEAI

[2] = biological target: T3, SH3P9, a novel mouse gene (mouse, UniProt O08539 2-588); test: as above
T3 construct: Protein encoded by a cDNA clone, on plaque-lift filters; also called SH3P9 (mouse); not shown: N-terminal phi10 leader (T7-Tag) common to all lambda EXlox recombinants
T3 sequence: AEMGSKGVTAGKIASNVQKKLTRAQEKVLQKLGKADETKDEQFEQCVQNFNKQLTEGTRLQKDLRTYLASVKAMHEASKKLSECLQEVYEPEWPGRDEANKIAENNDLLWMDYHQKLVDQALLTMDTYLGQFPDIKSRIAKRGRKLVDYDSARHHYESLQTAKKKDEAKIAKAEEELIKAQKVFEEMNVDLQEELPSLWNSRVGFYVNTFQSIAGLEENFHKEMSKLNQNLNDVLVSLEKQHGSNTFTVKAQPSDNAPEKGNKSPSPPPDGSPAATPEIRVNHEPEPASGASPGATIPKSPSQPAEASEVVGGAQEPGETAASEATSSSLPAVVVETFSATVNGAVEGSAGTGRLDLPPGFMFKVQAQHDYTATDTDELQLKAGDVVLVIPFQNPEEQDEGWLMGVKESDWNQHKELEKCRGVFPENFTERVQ

SH3P11, mouse Crk = biological target: T4, SH3P11, mouse Crk (mouse, UniProt Q64010 1-304); test: as above
T4 construct: Protein encoded by a cDNA clone, on plaque-lift filters; not shown: N-terminal phi10 leader (T7-Tag) common to all lambda EXlox recombinants

[3] = biological target: T5, SH3P13, a novel mouse gene (mouse, UniProt Q62421 1-347); test: as above
T5 construct: Protein encoded by a cDNA clone, on plaque-lift filters; not shown: N-terminal phi10 leader (T7-Tag) common to all lambda EXlox recombinants
T5 sequence: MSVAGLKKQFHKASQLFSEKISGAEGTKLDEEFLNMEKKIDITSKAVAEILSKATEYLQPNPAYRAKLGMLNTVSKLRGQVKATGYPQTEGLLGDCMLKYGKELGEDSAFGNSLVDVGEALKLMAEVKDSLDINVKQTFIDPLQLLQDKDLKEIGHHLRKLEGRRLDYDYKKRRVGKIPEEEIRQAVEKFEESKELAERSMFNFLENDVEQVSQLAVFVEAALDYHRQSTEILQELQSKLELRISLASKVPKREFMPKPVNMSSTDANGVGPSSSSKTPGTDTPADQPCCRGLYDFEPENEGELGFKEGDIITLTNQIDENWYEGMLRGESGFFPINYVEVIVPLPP

SH3P5, mouse Cortactin = biological target: T6, SH3P5, mouse Cortactin (mouse, UniProt Q60598 1-546); test: as above
T6 construct: Protein encoded by a cDNA clone, on plaque-lift filters; not shown: N-terminal phi10 leader (T7-Tag) common to all lambda EXlox recombinants

SH3P10, mouse HS1 = biological target: T7, SH3P10, mouse HS1 (mouse, UniProt P49710 1-486); test: as above
T7 construct: Protein encoded by a cDNA clone, on plaque-lift filters; also called SPY75/HS1; not shown: N-terminal phi10 leader (T7-Tag) common to all lambda EXlox recombinants
T7 sequence: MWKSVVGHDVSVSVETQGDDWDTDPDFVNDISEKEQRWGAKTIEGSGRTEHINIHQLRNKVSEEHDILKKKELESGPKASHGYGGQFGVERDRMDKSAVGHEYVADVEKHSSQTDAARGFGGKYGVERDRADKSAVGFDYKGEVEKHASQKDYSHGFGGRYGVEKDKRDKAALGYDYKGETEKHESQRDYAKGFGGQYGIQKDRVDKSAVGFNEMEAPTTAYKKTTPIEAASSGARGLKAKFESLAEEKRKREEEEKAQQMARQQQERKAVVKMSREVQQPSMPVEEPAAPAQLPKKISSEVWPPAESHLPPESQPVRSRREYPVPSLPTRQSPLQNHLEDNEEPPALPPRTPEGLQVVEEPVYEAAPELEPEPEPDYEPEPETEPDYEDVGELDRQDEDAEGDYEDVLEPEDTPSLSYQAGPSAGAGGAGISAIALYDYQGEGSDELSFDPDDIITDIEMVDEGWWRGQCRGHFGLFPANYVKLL

[4] = biological target: T8, SH3P8, a novel mouse gene (mouse, UniProt Q62419 1-368); test: as above
T8 construct: Protein encoded by a cDNA clone, on plaque-lift filters; not shown: N-terminal phi10 leader (T7-Tag) common to all lambda EXlox recombinants

[5] = biological target: T9, SH3P12, a novel mouse gene (mouse, UniProt Q62417 1-1290); test: as above
T9 construct: Protein encoded by a cDNA clone, on plaque-lift filters; not shown: N-terminal phi10 leader (T7-Tag) common to all lambda EXlox recombinants
T9 sequence: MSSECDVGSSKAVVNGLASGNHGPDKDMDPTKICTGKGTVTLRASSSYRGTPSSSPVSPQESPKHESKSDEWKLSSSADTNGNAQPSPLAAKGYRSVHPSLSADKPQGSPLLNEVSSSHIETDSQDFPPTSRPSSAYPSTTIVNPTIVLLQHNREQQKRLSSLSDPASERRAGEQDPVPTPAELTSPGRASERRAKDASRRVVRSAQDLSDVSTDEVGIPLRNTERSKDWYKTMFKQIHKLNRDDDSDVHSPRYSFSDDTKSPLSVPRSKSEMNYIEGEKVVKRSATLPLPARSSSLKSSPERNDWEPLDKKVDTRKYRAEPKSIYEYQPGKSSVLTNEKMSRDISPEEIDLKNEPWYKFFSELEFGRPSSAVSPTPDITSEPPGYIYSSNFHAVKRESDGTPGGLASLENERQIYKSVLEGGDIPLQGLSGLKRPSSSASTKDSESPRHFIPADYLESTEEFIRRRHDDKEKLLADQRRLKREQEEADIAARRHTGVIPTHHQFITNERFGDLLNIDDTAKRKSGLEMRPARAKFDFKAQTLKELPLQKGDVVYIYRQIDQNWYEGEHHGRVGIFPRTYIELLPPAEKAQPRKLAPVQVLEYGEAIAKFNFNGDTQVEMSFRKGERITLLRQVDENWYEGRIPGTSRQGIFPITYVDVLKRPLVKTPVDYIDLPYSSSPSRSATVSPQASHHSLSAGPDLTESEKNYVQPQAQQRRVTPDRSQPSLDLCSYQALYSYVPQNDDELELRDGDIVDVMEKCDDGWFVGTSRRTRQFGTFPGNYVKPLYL

[6] = biological target: T10, SH3P18, a novel human gene (human, UniProt Q9NZM3 952-1192); test: plaque-lift screen of human prostate cancer and bone marrow cDNA expression libraries with biotinylated peptide complexed to SA-AP (T12SRC.4 also present in the initial screens)
T10 construct: Fragment encoded by a cDNA clone, with at least three SH3 domains, on plaque-lift filters
T10 sequence: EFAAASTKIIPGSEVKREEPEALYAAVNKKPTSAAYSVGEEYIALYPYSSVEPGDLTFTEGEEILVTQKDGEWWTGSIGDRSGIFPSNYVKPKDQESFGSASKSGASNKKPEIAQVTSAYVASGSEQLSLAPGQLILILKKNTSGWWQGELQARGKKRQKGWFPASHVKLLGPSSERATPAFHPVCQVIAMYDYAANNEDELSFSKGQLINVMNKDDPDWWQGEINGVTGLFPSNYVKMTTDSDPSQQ

SH3P14, human H74 = biological target: T11, SH3P14, human H74 (human, UniProt Q9UNF0 118-486, limits assumed); test: as above
T11 construct: Protein encoded by a cDNA clone from a lambda gt11 or gt22a human library, on plaque-lift filters
T11 sequence: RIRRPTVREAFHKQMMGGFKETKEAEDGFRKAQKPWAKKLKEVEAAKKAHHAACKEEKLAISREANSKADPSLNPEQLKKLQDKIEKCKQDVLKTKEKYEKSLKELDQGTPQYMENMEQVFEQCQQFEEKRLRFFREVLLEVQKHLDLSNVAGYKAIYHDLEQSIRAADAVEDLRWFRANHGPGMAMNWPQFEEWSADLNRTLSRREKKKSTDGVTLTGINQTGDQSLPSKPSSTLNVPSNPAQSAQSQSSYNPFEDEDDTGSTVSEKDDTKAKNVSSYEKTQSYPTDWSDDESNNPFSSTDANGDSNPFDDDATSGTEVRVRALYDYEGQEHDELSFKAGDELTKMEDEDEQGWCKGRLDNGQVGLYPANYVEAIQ

[7] = biological target: T12, SH3P9, a novel human gene (human, UniProt O00499 44-593); test: as above
T12 construct: Protein encoded by a cDNA clone from a lambda gt11 or gt22a human library, on plaque-lift filters; The vector fusion partner is not described; also called human homolog of SH3P9
T12 sequence: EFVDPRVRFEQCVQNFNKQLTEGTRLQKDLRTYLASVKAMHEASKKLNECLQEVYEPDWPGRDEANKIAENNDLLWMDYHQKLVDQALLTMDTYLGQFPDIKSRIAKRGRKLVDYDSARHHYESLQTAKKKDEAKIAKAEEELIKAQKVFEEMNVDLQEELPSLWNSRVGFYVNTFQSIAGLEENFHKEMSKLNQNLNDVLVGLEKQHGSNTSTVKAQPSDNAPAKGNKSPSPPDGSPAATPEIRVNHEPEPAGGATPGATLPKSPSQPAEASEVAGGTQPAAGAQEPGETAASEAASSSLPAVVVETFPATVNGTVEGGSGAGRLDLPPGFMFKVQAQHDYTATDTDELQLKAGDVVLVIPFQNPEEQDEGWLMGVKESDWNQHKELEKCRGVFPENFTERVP

[8] = biological target: T13, SH3P17, a novel human gene (human, UniProt Q15811 729-1220); test: as above
T13 construct: Fragment encoded by a cDNA clone, with at least four SH3 domains, on plaque-lift filters
T13 sequence: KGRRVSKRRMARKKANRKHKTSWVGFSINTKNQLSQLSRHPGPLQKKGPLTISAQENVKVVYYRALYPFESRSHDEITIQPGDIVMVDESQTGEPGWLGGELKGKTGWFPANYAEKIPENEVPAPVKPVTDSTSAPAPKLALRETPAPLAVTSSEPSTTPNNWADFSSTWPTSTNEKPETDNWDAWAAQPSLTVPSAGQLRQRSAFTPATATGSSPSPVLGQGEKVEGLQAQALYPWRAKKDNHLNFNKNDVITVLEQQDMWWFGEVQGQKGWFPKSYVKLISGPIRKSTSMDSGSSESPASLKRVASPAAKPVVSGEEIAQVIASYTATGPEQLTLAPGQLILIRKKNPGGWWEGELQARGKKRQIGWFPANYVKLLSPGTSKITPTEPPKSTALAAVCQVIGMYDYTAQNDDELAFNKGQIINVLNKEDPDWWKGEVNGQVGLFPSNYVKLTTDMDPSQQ

Measured: binding result

T8 sequence (Q62419 other isoform, or with tags, fused parts or gaps): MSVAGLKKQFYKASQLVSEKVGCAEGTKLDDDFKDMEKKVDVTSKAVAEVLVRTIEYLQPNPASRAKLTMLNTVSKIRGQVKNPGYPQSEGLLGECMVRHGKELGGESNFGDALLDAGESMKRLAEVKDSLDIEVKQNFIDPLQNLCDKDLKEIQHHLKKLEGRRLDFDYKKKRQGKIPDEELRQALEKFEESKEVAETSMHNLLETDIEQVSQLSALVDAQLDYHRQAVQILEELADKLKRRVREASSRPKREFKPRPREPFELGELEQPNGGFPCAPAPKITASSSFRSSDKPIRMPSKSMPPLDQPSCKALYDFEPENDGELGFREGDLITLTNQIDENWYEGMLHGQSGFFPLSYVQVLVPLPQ
T6 sequence (Q60598 whole entry S298P): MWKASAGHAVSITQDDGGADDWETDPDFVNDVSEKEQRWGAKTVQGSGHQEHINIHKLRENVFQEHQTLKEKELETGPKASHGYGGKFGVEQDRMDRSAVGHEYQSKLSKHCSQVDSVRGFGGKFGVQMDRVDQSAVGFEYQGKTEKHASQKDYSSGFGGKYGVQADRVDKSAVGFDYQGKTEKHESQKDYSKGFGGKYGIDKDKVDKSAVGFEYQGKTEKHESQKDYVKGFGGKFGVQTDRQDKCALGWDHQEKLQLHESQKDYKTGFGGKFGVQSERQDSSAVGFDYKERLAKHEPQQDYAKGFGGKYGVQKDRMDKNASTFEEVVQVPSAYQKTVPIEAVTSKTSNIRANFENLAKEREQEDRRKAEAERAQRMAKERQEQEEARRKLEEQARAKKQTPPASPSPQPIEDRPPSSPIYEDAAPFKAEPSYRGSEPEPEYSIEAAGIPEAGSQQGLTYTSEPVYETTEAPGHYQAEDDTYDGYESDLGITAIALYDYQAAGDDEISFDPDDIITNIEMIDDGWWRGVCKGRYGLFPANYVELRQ
T1 sequence (Q62418 other isoform, or with tags, fused parts or gaps): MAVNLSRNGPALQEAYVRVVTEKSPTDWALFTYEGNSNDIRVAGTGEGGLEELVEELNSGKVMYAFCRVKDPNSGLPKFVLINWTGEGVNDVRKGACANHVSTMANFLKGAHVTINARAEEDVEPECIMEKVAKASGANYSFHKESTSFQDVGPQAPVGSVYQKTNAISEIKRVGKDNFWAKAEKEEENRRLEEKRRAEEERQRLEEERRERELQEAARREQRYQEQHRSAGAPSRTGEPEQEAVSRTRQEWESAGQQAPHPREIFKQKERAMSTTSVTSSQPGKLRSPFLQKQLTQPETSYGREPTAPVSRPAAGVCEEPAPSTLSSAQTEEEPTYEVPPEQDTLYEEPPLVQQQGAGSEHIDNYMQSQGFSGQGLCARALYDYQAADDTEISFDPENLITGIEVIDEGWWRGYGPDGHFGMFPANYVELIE
T4 sequence (Q64010 whole entry): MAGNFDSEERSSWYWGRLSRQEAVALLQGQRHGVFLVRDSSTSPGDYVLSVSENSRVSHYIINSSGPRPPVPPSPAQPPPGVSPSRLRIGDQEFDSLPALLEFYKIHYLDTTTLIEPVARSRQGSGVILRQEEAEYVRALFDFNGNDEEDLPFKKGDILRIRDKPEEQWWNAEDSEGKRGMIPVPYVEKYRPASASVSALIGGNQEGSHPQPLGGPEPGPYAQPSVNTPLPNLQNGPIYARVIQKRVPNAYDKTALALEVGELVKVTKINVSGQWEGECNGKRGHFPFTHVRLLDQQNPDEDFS

B1: pCort (biotin-SGSGSRLTPQSKPPLPPKPSWVSR-NH2) (peptide)
peptide: Biotin-SGSGSRLTPQSKPPLPPKPSWVSR-NH2
SMILES: CC(C)C[C@H](NC(=O)[C@H](CCCNC(=N)N)NC(=O)[C@H](CO)NC(=O)CNC(=O)[C@H](CO)NC(=O)CNC(=O)[C@H](CO)NC(=O)CCCC[C@@H]1SC[C@@H]2NC(=O)N[C@@H]21)C(=O)N[C@H](C(=O)N1CCC[C@H]1C(=O)N[C@@H](CCC(N)=O)C(=O)N[C@@H](CO)C(=O)N[C@@H](CCCCN)C(=O)N1CCC[C@H]1C(=O)N1CCC[C@H]1C(=O)N[C@@H](CC(C)C)C(=O)N1CCC[C@H]1C(=O)N1CCC[C@H]1C(=O)N[C@@H](CCCCN)C(=O)N1CCC[C@H]1C(=O)N[C@@H](CO)C(=O)N[C@@H](Cc1c[nH]c2ccccc12)C(=O)N[C@H](C(=O)N[C@@H](CO)C(=O)N[C@@H](CCCNC(=N)N)C(N)=O)C(C)C)[C@@H](C)O
notes: Synthetic peptide with the Cortactin SH3 recognition unit motif; used complexed with streptavidin-alkaline phosphatase
not listed: [6] | SH3P14, human H74 | [7] | [8]
binds: all other assays above

B2: T12SRC.1 (biotin-GILAPPVPPRNTR-NH2) (peptide)
peptide: Biotin-GILAPPVPPRNTR-NH2
SMILES: CC[C@H](C)[C@H](NC(=O)CNC(=O)CCCC[C@@H]1SC[C@@H]2NC(=O)N[C@@H]21)C(=O)N[C@@H](CC(C)C)C(=O)N[C@@H](C)C(=O)N1CCC[C@H]1C(=O)N1CCC[C@H]1C(=O)N[C@H](C(=O)N1CCC[C@H]1C(=O)N1CCC[C@H]1C(=O)N[C@@H](CCCNC(=N)N)C(=O)N[C@@H](CC(N)=O)C(=O)N[C@H](C(=O)N[C@@H](CCCNC(=N)N)C(N)=O)[C@@H](C)O)C(C)C
notes: Used complexed with streptavidin-alkaline phosphatase; also called variant of the pSrcCII peptide
binds: [6] | SH3P14, human H74 | [7] | [8]
